Measured values: PMC6159516 (Nucleic Acids Research, 2018)
Values belong to the molecule of their own block, whether it stands above or below them.

Experiments:
[1] = molecular target: FANCJ-R707C with a C-terminal FLAG tag (human) (UniProt Q9BX63)
FANCJ-WT = molecular target: T1, FANCJ-WT (Homo sapiens, UniProt Q9BX63 1-1249); test: EMSA; 5 mM Mg2+, no ATP; EMSA: 40 mM Tris-HCl pH 7.4, 25 mM KCl, 5 mM MgCl2, 2 mM DTT, 2% glycerol, 100 ng/ul BSA, no ATP, 0.5 nM DNA, 24 C 30 min; native 5% PAGE in 1x TBE at 4 C
T1 sequence: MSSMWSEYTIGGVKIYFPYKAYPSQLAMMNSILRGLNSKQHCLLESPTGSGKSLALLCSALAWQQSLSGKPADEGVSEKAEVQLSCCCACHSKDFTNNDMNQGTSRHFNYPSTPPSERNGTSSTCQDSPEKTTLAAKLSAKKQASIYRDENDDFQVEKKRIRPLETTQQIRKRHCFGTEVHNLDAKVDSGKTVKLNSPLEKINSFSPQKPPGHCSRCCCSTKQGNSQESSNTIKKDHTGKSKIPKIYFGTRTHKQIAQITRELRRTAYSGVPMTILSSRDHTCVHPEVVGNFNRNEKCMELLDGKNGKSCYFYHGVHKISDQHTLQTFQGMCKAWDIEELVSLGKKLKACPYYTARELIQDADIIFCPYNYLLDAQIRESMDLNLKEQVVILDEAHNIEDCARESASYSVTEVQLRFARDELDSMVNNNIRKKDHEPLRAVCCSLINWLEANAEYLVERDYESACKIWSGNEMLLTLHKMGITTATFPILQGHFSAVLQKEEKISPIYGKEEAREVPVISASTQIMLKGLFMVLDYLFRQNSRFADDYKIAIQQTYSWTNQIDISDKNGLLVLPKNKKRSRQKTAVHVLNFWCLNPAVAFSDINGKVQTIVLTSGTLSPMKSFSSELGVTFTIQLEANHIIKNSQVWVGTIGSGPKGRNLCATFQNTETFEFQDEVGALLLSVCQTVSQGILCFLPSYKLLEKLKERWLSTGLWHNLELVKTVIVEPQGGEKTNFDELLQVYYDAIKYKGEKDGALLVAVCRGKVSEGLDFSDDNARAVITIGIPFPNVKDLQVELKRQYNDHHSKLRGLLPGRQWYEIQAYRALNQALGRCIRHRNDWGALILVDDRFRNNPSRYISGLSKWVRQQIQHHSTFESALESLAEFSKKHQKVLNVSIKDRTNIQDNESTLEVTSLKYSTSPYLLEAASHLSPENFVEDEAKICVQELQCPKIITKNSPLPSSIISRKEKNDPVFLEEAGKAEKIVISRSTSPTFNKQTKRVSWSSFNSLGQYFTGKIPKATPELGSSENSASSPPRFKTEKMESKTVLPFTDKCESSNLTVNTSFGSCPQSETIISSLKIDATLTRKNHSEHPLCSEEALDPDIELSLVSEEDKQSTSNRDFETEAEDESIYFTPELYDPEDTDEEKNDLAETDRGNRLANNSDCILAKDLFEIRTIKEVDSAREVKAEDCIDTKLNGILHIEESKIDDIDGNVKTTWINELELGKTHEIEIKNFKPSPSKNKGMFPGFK

[2] = molecular target: T2, FANCJ-wild type (WT) with a C-terminal FLAG tag (human), Q9BX63; test: SEC; purified recombinant FANCJ applied to a Superdex-200 column on an AKTA FPLC, UV detection, calibrated with molecular mass markers; dimer and monomer peaks; conditions: remark: other sources report otherwise
T2 chain: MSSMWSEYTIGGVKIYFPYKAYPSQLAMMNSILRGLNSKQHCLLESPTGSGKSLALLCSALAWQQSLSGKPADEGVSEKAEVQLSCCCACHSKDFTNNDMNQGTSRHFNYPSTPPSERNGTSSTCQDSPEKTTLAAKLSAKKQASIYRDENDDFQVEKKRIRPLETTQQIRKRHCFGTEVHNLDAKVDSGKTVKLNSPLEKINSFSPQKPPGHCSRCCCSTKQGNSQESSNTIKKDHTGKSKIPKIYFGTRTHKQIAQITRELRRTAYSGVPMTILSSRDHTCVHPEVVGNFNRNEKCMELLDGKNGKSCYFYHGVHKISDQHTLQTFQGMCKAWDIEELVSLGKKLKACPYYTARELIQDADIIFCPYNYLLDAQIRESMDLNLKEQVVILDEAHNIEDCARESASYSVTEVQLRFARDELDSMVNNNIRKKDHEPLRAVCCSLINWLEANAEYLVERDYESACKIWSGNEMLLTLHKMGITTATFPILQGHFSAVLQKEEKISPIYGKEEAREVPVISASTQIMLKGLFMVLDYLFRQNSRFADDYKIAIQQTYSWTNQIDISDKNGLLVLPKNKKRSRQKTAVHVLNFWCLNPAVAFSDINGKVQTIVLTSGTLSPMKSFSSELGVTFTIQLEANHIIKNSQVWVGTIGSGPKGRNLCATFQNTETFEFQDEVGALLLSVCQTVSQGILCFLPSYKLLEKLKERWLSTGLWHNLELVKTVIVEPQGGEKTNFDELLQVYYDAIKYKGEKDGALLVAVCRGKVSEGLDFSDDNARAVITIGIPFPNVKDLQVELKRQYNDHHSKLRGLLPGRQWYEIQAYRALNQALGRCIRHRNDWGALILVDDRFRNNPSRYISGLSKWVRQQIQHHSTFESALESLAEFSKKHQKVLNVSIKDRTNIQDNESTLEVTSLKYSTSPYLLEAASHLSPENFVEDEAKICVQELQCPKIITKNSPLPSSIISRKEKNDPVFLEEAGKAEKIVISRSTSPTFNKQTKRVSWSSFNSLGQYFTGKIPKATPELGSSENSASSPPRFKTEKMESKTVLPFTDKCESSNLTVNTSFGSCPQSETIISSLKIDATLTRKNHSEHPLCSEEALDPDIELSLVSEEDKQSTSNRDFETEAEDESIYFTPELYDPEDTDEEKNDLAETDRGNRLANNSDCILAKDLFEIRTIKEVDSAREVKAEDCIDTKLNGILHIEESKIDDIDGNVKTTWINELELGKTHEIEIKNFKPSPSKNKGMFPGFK

[3] = molecular target: the molecule itself; test: as above

B1: single-stranded 45-mer (DC26) (ssDNA)
DNA: TTTTTTTTTTTTTTTTTTTTTTCCCAGTAAAACGACGGCCAGTGC
binding result (FANCJ-WT): binds

B3: FANCJ-H396D with a C-terminal FLAG tag (enzyme, human, UniProt Q9BX63 1-1249, looked up)
chain: MSSMWSEYTIGGVKIYFPYKAYPSQLAMMNSILRGLNSKQHCLLESPTGSGKSLALLCSALAWQQSLSGKPADEGVSEKAEVQLSCCCACHSKDFTNNDMNQGTSRHFNYPSTPPSERNGTSSTCQDSPEKTTLAAKLSAKKQASIYRDENDDFQVEKKRIRPLETTQQIRKRHCFGTEVHNLDAKVDSGKTVKLNSPLEKINSFSPQKPPGHCSRCCCSTKQGNSQESSNTIKKDHTGKSKIPKIYFGTRTHKQIAQITRELRRTAYSGVPMTILSSRDHTCVHPEVVGNFNRNEKCMELLDGKNGKSCYFYHGVHKISDQHTLQTFQGMCKAWDIEELVSLGKKLKACPYYTARELIQDADIIFCPYNYLLDAQIRESMDLNLKEQVVILDEADNIEDCARESASYSVTEVQLRFARDELDSMVNNNIRKKDHEPLRAVCCSLINWLEANAEYLVERDYESACKIWSGNEMLLTLHKMGITTATFPILQGHFSAVLQKEEKISPIYGKEEAREVPVISASTQIMLKGLFMVLDYLFRQNSRFADDYKIAIQQTYSWTNQIDISDKNGLLVLPKNKKRSRQKTAVHVLNFWCLNPAVAFSDINGKVQTIVLTSGTLSPMKSFSSELGVTFTIQLEANHIIKNSQVWVGTIGSGPKGRNLCATFQNTETFEFQDEVGALLLSVCQTVSQGILCFLPSYKLLEKLKERWLSTGLWHNLELVKTVIVEPQGGEKTNFDELLQVYYDAIKYKGEKDGALLVAVCRGKVSEGLDFSDDNARAVITIGIPFPNVKDLQVELKRQYNDHHSKLRGLLPGRQWYEIQAYRALNQALGRCIRHRNDWGALILVDDRFRNNPSRYISGLSKWVRQQIQHHSTFESALESLAEFSKKHQKVLNVSIKDRTNIQDNESTLEVTSLKYSTSPYLLEAASHLSPENFVEDEAKICVQELQCPKIITKNSPLPSSIISRKEKNDPVFLEEAGKAEKIVISRSTSPTFNKQTKRVSWSSFNSLGQYFTGKIPKATPELGSSENSASSPPRFKTEKMESKTVLPFTDKCESSNLTVNTSFGSCPQSETIISSLKIDATLTRKNHSEHPLCSEEALDPDIELSLVSEEDKQSTSNRDFETEAEDESIYFTPELYDPEDTDEEKNDLAETDRGNRLANNSDCILAKDLFEIRTIKEVDSAREVKAEDCIDTKLNGILHIEESKIDDIDGNVKTTWINELELGKTHEIEIKNFKPSPSKNKGMFPGFK
stoichiometry N [3]: 2

Other lines, results leading:

percent of 34 bp forked duplex DNA substrate (0.5 nM) unwound by FANCJ-R707C (20 nM) with increasing RPA, up to 8 nM, 30°C, 15 min (stimulation of helicase activity by RPA) [1]: 45%
Molecule: RPA (complex)

stoichiometry N [2]: 2
B2: FANCJ-wild type (WT) with a C-terminal FLAG tag, Q9BX63 1-1249 (enzyme)
chain: MSSMWSEYTIGGVKIYFPYKAYPSQLAMMNSILRGLNSKQHCLLESPTGSGKSLALLCSALAWQQSLSGKPADEGVSEKAEVQLSCCCACHSKDFTNNDMNQGTSRHFNYPSTPPSERNGTSSTCQDSPEKTTLAAKLSAKKQASIYRDENDDFQVEKKRIRPLETTQQIRKRHCFGTEVHNLDAKVDSGKTVKLNSPLEKINSFSPQKPPGHCSRCCCSTKQGNSQESSNTIKKDHTGKSKIPKIYFGTRTHKQIAQITRELRRTAYSGVPMTILSSRDHTCVHPEVVGNFNRNEKCMELLDGKNGKSCYFYHGVHKISDQHTLQTFQGMCKAWDIEELVSLGKKLKACPYYTARELIQDADIIFCPYNYLLDAQIRESMDLNLKEQVVILDEAHNIEDCARESASYSVTEVQLRFARDELDSMVNNNIRKKDHEPLRAVCCSLINWLEANAEYLVERDYESACKIWSGNEMLLTLHKMGITTATFPILQGHFSAVLQKEEKISPIYGKEEAREVPVISASTQIMLKGLFMVLDYLFRQNSRFADDYKIAIQQTYSWTNQIDISDKNGLLVLPKNKKRSRQKTAVHVLNFWCLNPAVAFSDINGKVQTIVLTSGTLSPMKSFSSELGVTFTIQLEANHIIKNSQVWVGTIGSGPKGRNLCATFQNTETFEFQDEVGALLLSVCQTVSQGILCFLPSYKLLEKLKERWLSTGLWHNLELVKTVIVEPQGGEKTNFDELLQVYYDAIKYKGEKDGALLVAVCRGKVSEGLDFSDDNARAVITIGIPFPNVKDLQVELKRQYNDHHSKLRGLLPGRQWYEIQAYRALNQALGRCIRHRNDWGALILVDDRFRNNPSRYISGLSKWVRQQIQHHSTFESALESLAEFSKKHQKVLNVSIKDRTNIQDNESTLEVTSLKYSTSPYLLEAASHLSPENFVEDEAKICVQELQCPKIITKNSPLPSSIISRKEKNDPVFLEEAGKAEKIVISRSTSPTFNKQTKRVSWSSFNSLGQYFTGKIPKATPELGSSENSASSPPRFKTEKMESKTVLPFTDKCESSNLTVNTSFGSCPQSETIISSLKIDATLTRKNHSEHPLCSEEALDPDIELSLVSEEDKQSTSNRDFETEAEDESIYFTPELYDPEDTDEEKNDLAETDRGNRLANNSDCILAKDLFEIRTIKEVDSAREVKAEDCIDTKLNGILHIEESKIDDIDGNVKTTWINELELGKTHEIEIKNFKPSPSKNKGMFPGFK
